Test results: patent US20130209454A1

Columns and labels:
[1] = biological target: Env of HIV-1 strain SC422661.8 (HIV-1); assay: cell-based or functional assay
[2] = biological target: Env of HIV-1 strain CAP45.2.00.G3 (HIV-1); assay: cell-based or functional assay
[3] = biological target: Env of HIV-1 strain TRO.11 (HIV-1); assay: cell-based or functional assay
[4] = biological target: Env of HIV-1 strain Du172.17 (HIV-1); assay: cell-based or functional assay
[5] = biological target: Env of HIV-1 strain AC10.0.29 (HIV-1); assay: cell-based or functional assay
[6] = biological target: Env of HIV-1 strain CAP210.2.00.E8 (HIV-1); assay: cell-based or functional assay
[7] = biological target: HIV-1 strain CAP45.2.00.G3 envelope (gp120) (HIV-1); assay: cell-based or functional assay
[8] = biological target: HIV-1 strain CAP210.2.00.E8 envelope (gp120) (HIV-1); assay: cell-based or functional assay
[9] = biological target: HIV-1 strain Du172.17 envelope (gp120) (HIV-1); assay: cell-based or functional assay
[10] = biological target: HIV-1 strain TRO.11 envelope (gp120) (HIV-1); assay: cell-based or functional assay
[11] = biological target: HIV-1 strain AC10.0.29 envelope (gp120) (HIV-1); assay: cell-based or functional assay
[12] = biological target: HIV-1 strain SC422661.8 envelope (gp120) (HIV-1); assay: cell-based or functional assay
[13] = biological target: gp120 (ZM135M.PL10a) of the CD4-gp120 complex structure (HIV-1); assay: CD4-gp120 complex structure, AreaIMol, 1.4 Å probe
[14] = biological target: CAP244.2.00.D3 gp120 core (HIV-1)
[15] = biological target: 93TH057 gp120 core (HIV-1)
[16] = biological target: Q259.d2.17 gp120 core (HIV-1)
[17] = biological target: HIV-1 strain T257-31 envelope (gp120) (HIV-1); assay: cell-based or functional assay
[18] = biological target: HIV-1 strain QH0692.42 envelope (gp120) (HIV-1); assay: cell-based or functional assay
[19] = biological target: HIV-1 strain ZM214M.PL15 envelope (gp120) (HIV-1); assay: cell-based or functional assay
[20] = biological target: HIV-1 Env of strain 3016.v5.c45 (HIV-1); assay: cell-based or functional assay
[21] = biological target: HIV-1 Env of strain C2101.c01 (HIV-1); assay: cell-based or functional assay
[22] = biological target: HIV-1 Env of strain AC10.0.29 (HIV-1); assay: cell-based or functional assay
[23] = biological target: HIV-1 Env of strain TRO.11 (HIV-1); assay: cell-based or functional assay
[24] = biological target: HIV-1 Env of strain T257-31 (HIV-1); assay: cell-based or functional assay
[25] = biological target: HIV-1 Env of strain SC422661.8 (HIV-1); assay: cell-based or functional assay
[26] = biological target: HIV-1 Env of strain QH0692.42 (HIV-1); assay: cell-based or functional assay
[27] = biological target: HIV-1 Env of strain CAP45.2.00.G3 (HIV-1); assay: cell-based or functional assay
[28] = biological target: HIV-1 Env of strain ZM214M.PL15 (HIV-1); assay: cell-based or functional assay
[29] = biological target: 93TH057 gp120 core (HIV-1); assay: structure PDB 3NGB, AreaIMol, 1.4 Å probe

Sequence of NIH45-46 Fab (C-terminal 6x-His tagged heavy chain, SPR) (VH): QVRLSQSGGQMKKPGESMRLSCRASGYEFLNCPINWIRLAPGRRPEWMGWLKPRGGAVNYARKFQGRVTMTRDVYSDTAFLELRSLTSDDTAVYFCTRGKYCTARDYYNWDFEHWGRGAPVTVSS
Sequence of NIH45-46 Fab (C-terminal 6x-His tagged heavy chain, SPR) (V domain): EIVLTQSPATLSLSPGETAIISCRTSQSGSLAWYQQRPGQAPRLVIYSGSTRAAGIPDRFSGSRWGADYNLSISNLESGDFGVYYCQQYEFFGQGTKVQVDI

3BNC60 T54L (antibody)
IC50 [1]: 0.034 µg/mL
IC50 [2]: > 50 µg/mL
IC50 [3]: 0.019 µg/mL
IC50 [4]: 3.59 µg/mL
IC50 [5]: > 50 µg/mL
IC50 [6]: 30.7 µg/mL

3BNC60 T54M (antibody)
IC50 [1]: 0.032 µg/mL
IC50 [2]: > 50 µg/mL
IC50 [3]: 0.019 µg/mL
IC50 [4]: 1.43 µg/mL
IC50 [5]: > 50 µg/mL
IC50 [6]: 25 µg/mL

3BNC60 T54I (antibody)
IC50 [1]: 0.054 µg/mL
IC50 [2]: > 50 µg/mL
IC50 [3]: 0.027 µg/mL
IC50 [4]: 21.8 µg/mL
IC50 [5]: > 50 µg/mL
IC50 [6]: > 50 µg/mL

3BNC60 T54E (antibody)
IC50 [1]: 0.075 µg/mL
IC50 [2]: > 50 µg/mL
IC50 [3]: 0.004 µg/mL
IC50 [4]: > 50 µg/mL
IC50 [5]: 2.92 µg/mL
IC50 [6]: > 50 µg/mL

3BNC60 T54D (antibody)
IC50 [1]: 0.556 µg/mL
IC50 [2]: > 50 µg/mL
IC50 [3]: 0.036 µg/mL
IC50 [4]: > 50 µg/mL
IC50 [5]: > 50 µg/mL
IC50 [6]: > 50 µg/mL

3BNC60 T54G (antibody)
IC50 [1]: 0.01 µg/mL
IC50 [2]: > 50 µg/mL
IC50 [3]: 0.0003 µg/mL
IC50 [4]: 0.02 µg/mL
IC50 [5]: 0.623 µg/mL
IC50 [6]: 11.9 µg/mL

3BNC60 T54H (antibody)
IC50 [1]: 0.003 µg/mL
IC50 [2]: 6.64 µg/mL
IC50 [3]: 0.011 µg/mL
IC50 [4]: 0.055 µg/mL
IC50 [5]: > 50 µg/mL
IC50 [6]: 1.6 µg/mL

3BNC60 T54W (antibody)
IC50 [1]: 0.031 µg/mL
IC50 [3]: 0.021 µg/mL
IC50 [4]: 2.2 µg/mL
IC50 [6]: 2.6 µg/mL

3BNC117 T54W IgG (antibody)
neutralization IC50 [7]: 23 µg/mL
neutralization IC50 [8]: 2.8 µg/mL
neutralization IC50 [9]: 0.9 µg/mL
neutralization IC50 [10]: 0.6 µg/mL
neutralization IC50 [11]: 2.8 µg/mL
neutralization IC50 [12]: 0.07 µg/mL

3BNC60 T54R (antibody)
IC50 [1]: 0.014 µg/mL
IC50 [2]: > 50 µg/mL
IC50 [3]: 0.006 µg/mL
IC50 [4]: 2.15 µg/mL
IC50 [5]: > 50 µg/mL
IC50 [6]: 5 µg/mL

3BNC60 T54K (antibody)
IC50 [1]: 0.024 µg/mL
IC50 [2]: > 50 µg/mL
IC50 [3]: 0.029 µg/mL
IC50 [4]: > 50 µg/mL
IC50 [5]: > 50 µg/mL
IC50 [6]: > 50 µg/mL

3BNC60 T54V (antibody)
IC50 [1]: 0.039 µg/mL
IC50 [2]: > 50 µg/mL
IC50 [3]: 0.024 µg/mL
IC50 [4]: 7.36 µg/mL
IC50 [5]: > 50 µg/mL
IC50 [6]: 42.8 µg/mL

3BNC60 T54S (antibody)
IC50 [1]: 0.036 µg/mL
IC50 [2]: 41.7 µg/mL
IC50 [3]: 0.02 µg/mL
IC50 [4]: 0.92 µg/mL
IC50 [5]: > 50 µg/mL
IC50 [6]: 14.7 µg/mL

3BNC60 T54Y (antibody)
IC50 [1]: 0.02 µg/mL
IC50 [3]: 0.012 µg/mL
IC50 [4]: 2.2 µg/mL
IC50 [6]: 2.9 µg/mL

CD4 (from UniProt P01730 26-208) (receptor)
buried surface area on gp120, Inner domain & bridging sheet [13]: 400 Å^2
buried surface area on gp120, Loop D + NAG [13]: 136 Å^2
buried surface area on gp120, Outer domain exit loop [13]: 97 Å^2
buried surface area on gp120, V5 [13]: 155 Å^2
buried surface area on gp120, β-15/α-3 + NAG [13]: 263 Å^2
buried surface area on gp120, β-24 [13]: 14 Å^2
buried surface area, Interface on Fab or CD4 [13]: 1060 Å^2
buried surface area, Total gp120 [13]: 973 Å^2

NIH45-46 Fab (C-terminal 6x-His tagged heavy chain, SPR)
Kd [14]: 97 nM
koff [14]: 0.0067 s⁻¹
kon [14]: 69000 M⁻¹ s⁻¹
Kd [15]: 160 nM
koff [15]: 0.0048 s⁻¹
kon [15]: 31000 M⁻¹ s⁻¹
Kd [16]: 190 nM
koff [16]: 0.01 s⁻¹
kon [16]: 55000 M⁻¹ s⁻¹

3BNC60 T54Q (antibody)
IC50 [1]: 0.038 µg/mL
IC50 [2]: 6.66 µg/mL
IC50 [3]: 0.006 µg/mL
IC50 [4]: 0.243 µg/mL
IC50 [5]: 9.04 µg/mL
IC50 [6]: 7.4 µg/mL

3BNC60 T54P (antibody)
IC50 [1]: 0.143 µg/mL
IC50 [2]: > 50 µg/mL
IC50 [3]: 0.048 µg/mL
IC50 [4]: > 50 µg/mL
IC50 [5]: > 50 µg/mL
IC50 [6]: > 50 µg/mL

VRC01 heavy chain paired with the NIH45-46 light chain (IgG) (antibody)
neutralization IC50 [7]: > 50 µg/mL
neutralization IC50 [17]: 15 µg/mL
neutralization IC50 [18]: 1.2 µg/mL
neutralization IC50 [19]: 1.8 µg/mL
neutralization IC50 [10]: 24 µg/mL
neutralization IC50 [11]: 4.5 µg/mL
neutralization IC50 [12]: 0.4 µg/mL

VRC01 IgG (antibody)
neutralization IC50 [7]: 1.8 µg/mL
neutralization IC50 [20]: 0.16 µg/mL
neutralization IC50 [21]: 0.36 µg/mL
neutralization IC50 [17]: 1 µg/mL
neutralization IC50 [18]: 0.7 µg/mL
neutralization IC50 [19]: 0.8 µg/mL
neutralization IC50 [10]: 0.5 µg/mL
neutralization IC50 [11]: 0.8 µg/mL
neutralization IC50 [12]: 0.2 µg/mL

3BNC60 T54F (antibody)
IC50 [1]: 0.025 µg/mL
IC50 [3]: 0.023 µg/mL
IC50 [4]: 2.2 µg/mL
IC50 [6]: 3.4 µg/mL

NIH45-46 Y99dA IgG (antibody)
neutralization IC50 [22]: 4.4 µg/mL
neutralization IC50 [23]: > 50 µg/mL
neutralization IC50 [24]: 2.4 µg/mL
neutralization IC50 [25]: 0.08 µg/mL
neutralization IC50 [26]: 2.1 µg/mL
neutralization IC50 [27]: > 50 µg/mL
neutralization IC50 [28]: 1.1 µg/mL

3BNC60 T54A (antibody)
IC50 [1]: 0.027 µg/mL
IC50 [2]: > 50 µg/mL
IC50 [3]: 0.003 µg/mL
IC50 [4]: > 50 µg/mL
IC50 [5]: 2.6 µg/mL
IC50 [6]: 0.1 µg/mL

3BNC60 T54W IgG (antibody)
neutralization IC50 [7]: 19 µg/mL
neutralization IC50 [8]: 5 µg/mL
neutralization IC50 [9]: 0.04 µg/mL
neutralization IC50 [10]: 0.06 µg/mL
neutralization IC50 [11]: 3.1 µg/mL
neutralization IC50 [12]: 0.1 µg/mL

VRC01 Fab (structure of VRC01-93TH057, PDB code 3NGB)
buried surface area on gp120, Inner domain & bridging sheet [29]: 157 Å^2
buried surface area on gp120, Loop D + NAG [29]: 433 Å^2
buried surface area on gp120, Outer domain exit loop [29]: 57 Å^2
buried surface area on gp120, V5 [29]: 328 Å^2
buried surface area on gp120, β-15/α-3 + NAG [29]: 208 Å^2
buried surface area on gp120, β-24 [29]: 43 Å^2
buried surface area, Interface on Fab or CD4 [29]: 1210 Å^2
buried surface area, Total gp120 [29]: 1220 Å^2
total buried surface area, light chain with gp120 [29]: 681 Å^2
buried surface area, CDR3 ([29]; VRC01 heavy chain): 117 Å^2
buried surface area, Interface on gp120 ([29]; VRC01 heavy chain): 882 Å^2
buried surface area, Total Fab ([29]; VRC01 heavy chain): 892 Å^2
buried surface area, CDR3 ([29]; VRC01 light chain): 165 Å^2
buried surface area, Interface on gp120 ([29]; VRC01 light chain): 367 Å^2
buried surface area, Total Fab ([29]; VRC01 light chain): 314 Å^2

3BNC60 T54N (antibody)
IC50 [1]: 0.025 µg/mL
IC50 [2]: 16.7 µg/mL
IC50 [3]: 0.008 µg/mL
IC50 [4]: 0.662 µg/mL
IC50 [5]: > 50 µg/mL
IC50 [6]: 16.3 µg/mL
